Experimental data: US10131920B2, “Nucleic acid molecules” (MEDIMMUNE LIMITED, priority 2013, dated 2018)
Residue numbers refer to the chain shown, from its start. Names and notes keep the numbering of the source.

Key:
[1] = test system: GFPY40 reporter (GFP containing an amber codon) in HEK293 cells stably expressing pylRS; assay: Amber suppression-dependent GFP expression (GFPY40 reporter), transient transfection, flow cytometry; type: cell-based; settings: for capacity to support amber suppression relative to H1 WT tRNA (FIG. 4): all tRNA variants under control of the H1 promoter, 1 ug construct + 1 ug GFPY40, lys azide 2 mM, 18 hours; for GFP MFI, FIG. 8: 1 ug PCR product of each construct, lys azide nnAA
Experimental: (§1) To assess the function of the tRNA variants, an in vitro assay was established where cells are transiently transfected with a tRNA construct and a reporter construct encoding GFP containing an amber codon interrupting its reading frame (GFPY40). HEK293 cells stably expressing pylRS were transiently transfected with various tRNA constructs (1 ug) and the GFPY40 reporter (1 ug). In the absence of elements that support amber suppression, a truncated GFP protein is generated and the cell is not fluorescent. However, the introduction of a functional tRNA and the presence of a nnAA that supports amber suppression allows for the production of full length GFP resulting in fluorescent cells. The level of GFP expression reflects the efficiency of amber suppression and is quantified by flow cytometry. tRNA genes encoding wild type tRNApyl (WT tRNA), or containing mutations in the B-box (B tRNA—SEQ ID No 9), in both the A and B box (A2B tRNA—SEQ ID No 10), or in the A box (A1 tRNA-SEQ ID No 7; or A2 tRNA SEQ ID No 11), all under control of the H1 promoter were generated by site directed mutagenesis and assayed. The H1 promoter ensured that the variants were expressed and allowed us to examine the functional effects of the mutations introduced into the tRNA genes. In addition a sample transfected with GFPY40 alone was generated to establish background GFP levels. The transfected cells were grown in presence of the aminoacid analogue lys azide (2 mM) and incubated for 18 hours. GFP fluorescence was then assayed by flow cytometry and mean fluorescence intensity determined for each sample. Data were analysed with FCS Express and the mean fluorescence intensity of each sample determined using markers that constrain the data set to cells showing fluorescence above negative controls.
To begin to assess whether the tRNA mutations can support expression of the tRNA we assayed tRNA constructs encoding the wild type tRNA in the absence of the H1 promoter. Constructs encoding wild type tRNApyl (WT tRNA) or containing mutations in the B-box (B tRNA—SEQ ID No 9) or in both the A and B box (A2B; A2B tRNA—SEQ ID No 10) were assayed using our in vitro amber suppression assay described above. WT tRNA under control of the H1 promoter (H1-tRNA) was used as a positive control, and in addition one sample was transfected only with the GFPY40 reporter to illustrate background amber suppression in the absence of tRNA. The transfected cells were exposed to 2 mM lys-azide nnAA and cells incubated for three days. GFP expression was examined by flow cytometry and mean fluorescence intensity determined.
Two copies of the WT, B, or A2B tRNA were cloned in tandem to generate a single vector containing two copies of WT, B, or A2B tRNA. To assess the effect of increased gene doses by these constructs, cells expressing WTpylRS were transiently transfected with the tRNA constructs and the GFPY40 reporter construct and GFP expression assayed after two days.
The activity of each construct was assessed by transient transfection into cells stably expressing WT pylRS with the GFPY40 reporter as described above. For this experiment, 1 ug of a PCR product encoding each of the indicated constructs was used. In each case, cells were exposed to the lys azide nnAA for three days and GFP levels assayed by flow cytometry. Mean fluorescence intensities were determined for each sample and plotted (FIG. 8).

[2] = test system: GFPY40 reporter in 3H7 cells; assay: Amber suppression-dependent GFP expression (GFPY40 reporter), transient transfection of 3H7 cells, flow cytometry; type: cell-based; settings: three days
Experimental: as §1, with “controls. […] The constructs thus are functional and may contain the necessary genetic sequence to enable the expression of the tRNA also in the absence of an upstream promoter element such as the H1 promoter.” for “controls.”
Having established that the B mutation introduced into the pyltRNA sequence enabled expression of the tRNA that supported amber suppression we then asked whether this mutation affected the orthogonality of the tRNA and led to the incorporation of natural amino acids. To do this 3H7 cells were transiently transfected with expression constructs encoding WT-tRNA, B-tRNA, H1-tRNA and H1-B tRNA along with the GFPY40 reporter. Transfected cells were grown in the presence of 2 mM lys azide or absence of nnAA as indicated (FIG. 6), and GFP expression assessed by flow cytometry after three days. In addition, a sample transfected only with GFPY40 was examined to determine background amber suppression levels in the absence of tRNA. […] A comparison of GFP expression between the WT tRNA (MFI 33,781) and tRNA B (232,505) lacking extragenic promoter elements confirms that the B mutation generates a functional intragenic promoter. Indeed, the B tRNA construct enabled a seven-fold increase in the level of amber suppression dependent expression of GFP over WT tRNA.
We also tested the utility of a bicistronic tRNA expression construct for its ability to express tRNApyl. Here, the murine tRNA Glu and tRNA Asp were utilized. In each case, multiple repeats of the constructs were generated to increase activity (3×Glu-pyl and 2×Asp-pyl). Here, 3H7 cells were transiently transfected with 1 ug of the reporter construct GFPY40 and 1 ug of the indicated tRNA expression vectors (FIG. 11) and incubated with lys-azide for three days. Data were collected by flow cytometry and mean fluorescence intensities for each sample were plotted. […] The construct consisting of the 7SL WT tRNA (MFI=312) was included as a metric for low efficiency. In addition cell lines containing only the GFPY40 reporter were used as negative controls (MFI=0).

[3] = 2 mM lys-azide nnAA, three days

B1: H1-A1 tRNA: tRNA-A1 (A10G) under control of the H1 promoter (nucleic acid)
DNA: AATATTTGCATGTCGCTATGTGTTCTGGGAAATCACCATAAACGTGAAATCCCTATCAGTGATAGAGACTTATAAGTTCCCTATCAGTGATAGAGACACCAGGAAACCTGGTCATGTAGATCGAATGGACTCTAAATCCGTTCAGCCGGGTTAGATTCCCGGGGTTTCCGGACAAGTGCGGTTTTTTT
modifications: Synthetic sequence H1 tRNA-A1 construct
notes: tRNA-A1 (A10G) under control of the H1 promoter
capacity to support amber suppression relative to H1 WT tRNA (FIG. 4) [1]: does not affect the activity of the tRNA

B2: H1 A2 tRNA: tRNA-A2 (A10G, T14A) under control of the H1 promoter (nucleic acid)
DNA: B1 DNA with T115A
modifications: Synthetic sequence H1 tRNA-A2 construct
notes: tRNA-A2 (A10G, T14A) under control of the H1 promoter
capacity to support amber suppression relative to H1 WT tRNA (FIG. 4) [1]: does not affect the activity of the tRNA

B3: A2B tRNA: tRNApyl Methanosarcina mazei with A10G, T14A, A52C mutations (nucleic acid)
DNA: GGAAACCTGGTCAAGTAGATCGAATGGACTCTAAATCCGTTCAGCCGGGTTCGATTCCCGGGGTTTCCG
modifications: expressed or natural sequence
notes: tRNApyl Methanosarcina mazei with A10G, T14A, A52C mutations
GFP mean fluorescence intensity (MFI), FIG. 5 [1, 3]: 242,747.9 | fold higher expression of GFP than the wt tRNA construct (FIG. 5) [1, 3]: 2.5 fold | capacity to support amber suppression relative to H1 WT tRNA (FIG. 4) [1]: support amber suppression, albeit at a lower level than the WT tRNA | GFP MFI, single copy tRNA, FIG. 7 ([1]; cells expressing WTpylRS, after two days, single copy): 61,950 | GFP MFI, tandem copies of tRNA, FIG. 7 ([1]; cells expressing WTpylRS, after two days, single vector containing two copies in tandem): 96,158

B4: H1-B tRNA: tRNA-B (A52C) under control of the H1 promoter (nucleic acid)
DNA: B1 DNA with G111A, T152C
modifications: Synthetic sequence H1 tRNA-B construct
notes: tRNA-B (A52C) under control of the H1 promoter
GFP MFI in the presence of lys-azide, FIG. 6 ([2]; 2 mM lys azide): 313,386 | GFP MFI in the absence of nnAA, FIG. 6 ([2]; no nnAA): 36,217

B5: Vault WT tRNA: WT tRNApyl downstream of the Vault promoter 5′ region (nucleic acid)
DNA: TGGTCGCTGAGTCATGCTGAAGCACTCTCTTTTTGACTCACTCTTTGTGACGTAGGTCTTTCTCACCAGTCAATAAAATATAATCCGAAAGCAACCTCCCACCAGGAAACCTGATCATGTAGATCGAATGGACTCTAAATCCGTTCAGCCGGGTTAGATTCCCGGGGTTTCCGGACAAGTGCGGTTTTT
modifications: Synthetic sequence Vault tRNA-WT construct
notes: WT tRNApyl downstream of the Vault promoter 5′ region
GFP MFI, FIG. 8 ([1]; three days): 102,415

B6: 7SL tRNA A1: tRNA-A1 downstream of the 7SL promoter 5′ region (nucleic acid)
DNA: CCCAGTTGATGACGTCACCATACCACAGCTTCTAGTGCTATTCTGCGCCGGTATCCGACCACCAGGAAACCTGGTCATGTAGATCGAATGGACTCTAAATCCGTTCAGCCGGGTTAGATTCCCGGGGTTTCCGGACAAGTGCGGTTTTT
modifications: Synthetic sequence 7SL tRNA-A1 construct
notes: tRNA-A1 downstream of the 7SL promoter 5′ region
GFP MFI, FIG. 8 ([1]; three days): 114,393

B7: 7SL AB: tRNA-AB downstream of the 7SL promoter 5′ region (nucleic acid)
DNA: B6 DNA with A116C
modifications: Synthetic sequence 7SL tRNA-AB construct
notes: tRNA-AB downstream of the 7SL promoter 5′ region
GFP MFI, FIG. 8 ([1]; three days): 210,380

B8: 7SL A2B: tRNA-A2B downstream of the 7SL promoter 5′ region (nucleic acid)
DNA: B6 DNA with T78A, A116C
modifications: Synthetic sequence 7SL tRNA-A2B construct
notes: tRNA-A2B downstream of the 7SL promoter 5′ region
GFP MFI, FIG. 8 ([1]; three days): 245,120

B9: Vault B tRNA: tRNA-B downstream of the Vault promoter 5′ region (nucleic acid)
DNA: B5 DNA with A156C
modifications: Synthetic sequence Vault tRNA-B construct
notes: tRNA-B downstream of the Vault promoter 5′ region
GFP MFI, FIG. 9 ([1]; 1 ug GFPY40 reporter and 1 ug tRNA expression plasmid): 168,298 | GFP MFI, FIG. 8 ([1]; three days): 170,838

B10: Vault A2B tRNA: tRNA-A2B downstream of the Vault promoter 5′ region (nucleic acid)
DNA: B5 DNA with A114G, T118A, A156C
modifications: Synthetic sequence Vault tRNA-A2B construct
notes: tRNA-A2B downstream of the Vault promoter 5′ region
GFP MFI, FIG. 8 ([1]; three days): 154,445
